Reference: patent publication US20210085781A1

Target: recombinant SARS-CoV-2 S1 protein expressed from insect (Sf9) cells (S1-His, SinoBiological, Cat. No. 40591-V08B1) (SARS-CoV-2) (UniProt P0DTC2)
Test: ELISA, coated S1 from Sf9 cells, HRP-conjugated lectin 10 ug/mL

Salvia sclarea lectin (SSA; Cat. No: H-3501-1)
mean fold increase of OD450: 3.97 fold
